For orientation: Km means the substrate concentration at which the rate is half of its maximum.

Substrate in series [1]: CN/C(=N/CCSCc1nc[nH]c1C)NC#N
In words: not read.

Substrate in series [2]: NC(N)=Nc1nc(CSCCC(N)=NS(N)(=O)=O)cs1
In words: not read.

Substrate in series [3]: CNC(=C[N+](=O)[O-])NCCSCc1ccc(CN(C)C)o1
Nature of the series: TP_TRANSPORTER: cell accumulation in hOAT3 expressing HEK cells. Type of series: functional, cell-based, HEK293.

B1: Organic anion transporter 3 (Homo sapiens) (protein)
chain: MTFSEILDRVGSMGHFQFLHVAILGLPILNMANHNLLQIFTAATPVHHCRPPHNASTGPWVLPMGPNGKPERCLRFVHPPNASLPNDTQRAMEPCLDGWVYNSTKDSIVTEWDLVCNSNKLKEMAQSIFMAGILIGGLVLGDLSDRFGRRPILTCSYLLLAASGSGAAFSPTFPIYMVFRFLCGFGISGITLSTVILNVEWVPTRMRAIMSTALGYCYTFGQFILPGLAYAIPQWRWLQLTVSIPFFVFFLSSWWTPESIRWLVLSGKSSKALKILRRVAVFNGKKEEGERLSLEELKLNLQKEISLAKAKYTASDLFRIPMLRRMTFCLSLAWFATGFAYYSLAMGVEEFGVNLYILQIIFGGVDVPAKFITILSLSYLGRHTTQAAALLLAGGAILALTFVPLDLQTVRTVLAVFGKGCLSSSFSCLFLYTSELYPTVIRQTGMGVSNLWTRVGSMVSPLVKITGEVQPFIPNIIYGITALLGGSAALFLPETLNQPLPETIEDLENWSLRAKKPKQEPEVEKASQRIPLQPHGPGLGSS
As to B1, the Michaelis-Menten constant (Km) in the series “not read [1]” is 149 µM; in the series “not read [2]” it was 124 µM; in series [3], 234 µM.
